# Laboratory results from patent publication US20220305006A1, “COMPOSITIONS AND METHODS FOR THE TREATMENT OF NEUROLOGICAL DISEASES AND DISORDERS” (The Regents of the University of California, priority 2019, published 2022).
# Legend:
# Test in all cases: cell-based or functional assay
# [1] = target: Recombinant Human Cathepsin D (human) (UniProt P07339)
# [2] = target: BACE1 expressed from a transfected plasmid in 293T cells (NRG1 and PSGL1 assays)
# [3] = target: BACE in CHO-7W cells (Chinese hamster ovary cells stably transfected with wildtype human APP)
# Chain of Recombinant Human Cathepsin D (human) (P07339 65-412): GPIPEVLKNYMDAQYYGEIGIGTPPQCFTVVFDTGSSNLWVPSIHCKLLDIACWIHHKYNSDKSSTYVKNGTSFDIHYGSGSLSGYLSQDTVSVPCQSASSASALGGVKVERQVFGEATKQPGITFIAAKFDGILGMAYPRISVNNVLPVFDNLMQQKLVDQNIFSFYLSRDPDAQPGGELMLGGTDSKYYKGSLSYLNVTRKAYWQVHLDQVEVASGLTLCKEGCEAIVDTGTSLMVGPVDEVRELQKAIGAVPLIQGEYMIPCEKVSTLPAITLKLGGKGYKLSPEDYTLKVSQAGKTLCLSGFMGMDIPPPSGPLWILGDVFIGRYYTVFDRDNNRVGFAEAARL
"Cat D activity (fluorogenic substrate), IC50 [1] [µM]","NRG1 cleavage by BACE in co-transfected 293T cells (secreted alkaline phosphatase), EC50 [2] [µM]","PSGL1 cleavage by BACE in co-transfected 293T cells (secreted alkaline phosphatase), EC50 [2] [µM]","decrease of BACE cleavage product sAPPβ from CHO-7W cells, EC50 [3] [µM]",Substance
< 0.01,> 10,> 10,–,BACE inhibitor 1 (statine BACE inhibitor 1) (peptide)
–,> 10,> 10,< 5,"recombinant sAPPα, human, amino acids 19-613 (from UniProt P05067 19-613)"
